B1: Receptor protein kinase CLAVATA1 (Arabidopsis thaliana (Mouse-ear cress)), Q9SYQ8 (parent)
chain: MAMRLLKTHLLFLHLYLFFSPCFAYTDMEVLLNLKSSMIGPKGHGLHDWIHSSSPDAHCSFSGVSCDDDARVISLNVSFTPLFGTISPEIGMLTHLVNLTLAANNFTGELPLEMKSLTSLKVLNISNNGNLTGTFPGEILKAMVDLEVLDTYNNNFNGKLPPEMSELKKLKYLSFGGNFFSGEIPESYGDIQSLEYLGLNGAGLSGKSPAFLSRLKNLREMYIGYYNSYTGGVPPEFGGLTKLEILDMASCTLTGEIPTSLSNLKHLHTLFLHINNLTGHIPPELSGLVSLKSLDLSINQLTGEIPQSFINLGNITLINLFRNNLYGQIPEAIGELPKLEVFEVWENNFTLQLPANLGRNGNLIKLDVSDNHLTGLIPKDLCRGEKLEMLILSNNFFFGPIPEELGKCKSLTKIRIVKNLLNGTVPAGLFNLPLVTIIELTDNFFSGELPVTMSGDVLDQIYLSNNWFSGEIPPAIGNFPNLQTLFLDRNRFRGNIPREIFELKHLSRINTSANNITGGIPDSISRCSTLISVDLSRNRINGEIPKGINNVKNLGTLNISGNQLTGSIPTGIGNMTSLTTLDLSFNDLSGRVPLGGQFLVFNETSFAGNTYLCLPHRVSCPTRPGQTSDHNHTALFSPSRIVITVIAAITGLILISVAIRQMNKKKNQKSLAWKLTAFQKLDFKSEDVLECLKEENIIGKGGAGIVYRGSMPNNVDVAIKRLVGRGTGRSDHGFTAEIQTLGRIRHRHIVRLLGYVANKDTNLLLYEYMPNGSLGELLHGSKGGHLQWETRHRVAVEAAKGLCYLHHDCSPLILHRDVKSNNILLDSDFEAHVADFGLAKFLVDGAASECMSSIAGSYGYIAPEYAYTLKVDEKSDVYSFGVVLLELIAGKKPVGEFGEGVDIVRWVRNTEEEITQPSDAAIVVAIVDPRLTGYPLTSVIHVFKIAMMCVEEEAAARPTMREVVHMLTNPPKSVANLIAF
partner: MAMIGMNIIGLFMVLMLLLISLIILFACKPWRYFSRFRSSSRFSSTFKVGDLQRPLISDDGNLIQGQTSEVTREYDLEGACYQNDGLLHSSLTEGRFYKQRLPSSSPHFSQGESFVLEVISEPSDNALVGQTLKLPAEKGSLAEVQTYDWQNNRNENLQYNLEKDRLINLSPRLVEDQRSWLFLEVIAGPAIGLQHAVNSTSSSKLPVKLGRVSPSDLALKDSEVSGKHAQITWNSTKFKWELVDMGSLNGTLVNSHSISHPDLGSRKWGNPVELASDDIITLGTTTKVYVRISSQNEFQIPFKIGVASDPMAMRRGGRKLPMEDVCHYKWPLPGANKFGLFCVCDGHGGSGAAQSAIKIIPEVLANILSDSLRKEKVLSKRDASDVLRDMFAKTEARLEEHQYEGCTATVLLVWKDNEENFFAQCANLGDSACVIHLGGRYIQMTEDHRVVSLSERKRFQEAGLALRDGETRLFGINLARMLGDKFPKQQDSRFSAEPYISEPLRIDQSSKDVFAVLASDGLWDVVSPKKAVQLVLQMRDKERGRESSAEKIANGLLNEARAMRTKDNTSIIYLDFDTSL

Variants of: B1
Settings: with KAPP

| Variant | effect of a mutation on the interaction |
| --- | --- |
| K720E | disrupting interaction |
| G856D | disrupting interaction |

Variants of: B1
Settings: with KAPP
Remark: another data set of the same source

| Variant | effect of a mutation on the interaction |
| --- | --- |
| G856D | decreasing interaction |
